Test results reported in publication PMC11731451, “Phosphorylation of Lamin A/C regulates the structural integrity of the nuclear envelope” (The Journal of Biological Chemistry, 2024).

Target: T1, GST-tagged Lamin A-C178 (250-428 aa), wild type (UniProt P02545 250-428)
T1 construct: Lamin A, fragment C178, residues 250-428; also called Lamin-A-C178-WT
T1 sequence (looked up): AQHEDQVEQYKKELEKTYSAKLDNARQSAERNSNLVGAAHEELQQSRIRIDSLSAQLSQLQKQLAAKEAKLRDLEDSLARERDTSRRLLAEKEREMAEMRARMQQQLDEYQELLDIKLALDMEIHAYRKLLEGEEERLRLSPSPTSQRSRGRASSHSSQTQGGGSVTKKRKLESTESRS
Test: pull-down; 10 ug GST-tagged protein on glutathione agarose beads incubated with 10 ug soluble recombinant protein; PBS with 0.1% Triton X-100, 4 C, 4 h; three washes; SDS-PAGE with Coomassie staining; salt concentration also varied (Fig. S4B)
Conditions: both partners purified

B1: His-tagged Lamin A-N125 (1-125 aa), wild type (domain or fragment, UniProt P02545 1-125, looked up)
chain: METPSQRRATRSGAQASSTPLSPTRITRLQEKEDLQELNDRLAVYIDRVRSLETENAGLRLRITESEEVVSREVSGIKAAYEAELGDARKTLDSVAKERARLQLELSKVREEFKELKARNTKKEG
notes: The cell work is in human HeLa cells; also called Lamin A-N125-WT; source: E. coli BL21, purified (Ni-NTA agarose, dialysed)
  binding result: binds
